According to patent US20180185450A1 (Sanofi, published 2018):
Numbered stars: 1 amine (or outer) side, 2 acyl side, 3 side chain; on linkers, the order of the positions; unused ones are H or OH. Square brackets hold non-standard residues; d marks the D form. Side chains are listed from the residue outwards. Ends that are not written are not given here. γGlu = O=C(O)[C@H](CCC(=O)[*:2])N[*:1]; x53 = not defined here; Aib = CC(C)(N)C(=O)O

Molecular target: human GLP-1 receptor (human, UniProt P43220 24-463)
Test: cell-based or functional assay

Row | Binder | EC50 hGLP-1R (cAMP) [pM]
1 | H[Aib]QGTFTSDLSKQK([γGlu-x53])ESKAAQDFIEWLKAGGPSSGAPPPS-NH2 (reading uncertain) [SEQ ID NO: 25] | 4.2
2 | H[Aib]QGTFTSDLSKQK([γGlu-γGlu-x53])DEEAARLFIEWLKAGGPSSGAPPPS-NH2 (reading uncertain) [SEQ ID NO: 226] | 1.4
3 | H[Aib]QGTFTSDLSKQK(x53)ESRRAQDFIEWLKAGGPSSGAPPPS-NH2 (reading uncertain) [SEQ ID NO: 5] | 11
4 | HXQGTFTSDLSKQKESKAAQDFIEWLKAGGPSSGAPPPS (dSer at 2; K(γE-x70) at 14; C-terminal NH2) [SEQ ID NO: 26] | 5.1
5 | HXQGTFTSDLSKQKDSQAAQDFIEWLKAGGPSSGAPPPS (dSer at 2; K(γE-x53) at 14; C-terminal NH2) [SEQ ID NO: 39] | 2.7
6 | HXQGTFTSDLSKQKESRAAQEFIEWLKAGGPSSGAPPPS (dSer at 2; K(γE-x53) at 14; C-terminal NH2) [SEQ ID NO: 47] | 2.2
7 | HXQGTFTSDLSKQKESKAAQEFIEWLKAGGPSSGAPPPS (dSer at 2; K(γE-x53) at 14; C-terminal NH2) [SEQ ID NO: 28] | 5.5
8 | HXQGTFTSDLSKQKDEKAAQDFIEWLKAGGPSSGAPPPS (dSer at 2; K(γE-x53) at 14; C-terminal NH2) [SEQ ID NO: 22] | 1.1
9 | HXQGTFTSDLSKQKESKAAQDFIEWLKAGGPSSGAPPPS (dSer at 2; K(x53) at 14; C-terminal NH2) [SEQ ID NO: 32] | 10.2
10 | HXQGTFTSDLSKQKESQAAQDFIEWLKAGGPSSGAPPPS (dSer at 2; K(γE-x53) at 14; C-terminal NH2) [SEQ ID NO: 35] | 1.5
11 | HXQGTFTSDLSKQKESQAAQEFIEWLKAGGPSSGAPPPS (dSer at 2; K(γE-x53) at 14; C-terminal NH2) [SEQ ID NO: 37] | 1.5
12 | HXQGTFTSDLSKQKESQAAQDFIEWLKAGGPSSGAPPPS (dSer at 2; K(γE-x70) at 14; C-terminal NH2) [SEQ ID NO: 40] | 2.6
13 | HXQGTFTSDLSKQKDEQAAQDFIEWLKAGGPSSGAPPPS (dSer at 2; K(γE-x53) at 14; C-terminal NH2) [SEQ ID NO: 34] | 1.5
14 | HXQGTFTSDLSKQKESRAAQDFIEWLKAGGPSSGAPPPS (dSer at 2; K(γE-γE-x53) at 14; C-terminal NH2) [SEQ ID NO: 49] | 1.1
15 | HXQGTFTSDLSKQKESRAAQDFIEWLKAGGPSSGAPPPS (dSer at 2; K(γE-x53) at 14; C-terminal NH2) [SEQ ID NO: 44] | 2.7
16 | HXQGTFTSDLSKQKESRAAQDFIEWLKAGGPSSGAPPPS (dSer at 2; K(GABA-x53) at 14; C-terminal NH2) [SEQ ID NO: 50] | 3.3
17 | HXQGTFTSDLSKQKESQAAQDFIEWLKAGGPSSGAPPPS (dSer at 2; K(x53) at 14; C-terminal NH2) [SEQ ID NO: 42] | 10.2
18 | H[Aib]QGTFTSDLSKQK([γGlu-x53])ESQAAQDFIEWLKAGGPSSGAPPPS-NH2 (reading uncertain) [SEQ ID NO: 36] | 2.7
19 | H[Aib]QGTFTSDLSKQK([γGlu-x53])ESQAAQEFIEWLKAGGPSSGAPPPS-NH2 (reading uncertain) [SEQ ID NO: 38] | 2.9
20 | H[Aib]QGTFTSDLSKQK(x53)ESKAAQDFIEWLKAGGPSSGAPPPS-NH2 (reading uncertain) [SEQ ID NO: 33] | 11.2

Molecular target: human glucagon receptor (human, UniProt P47871 26-477)
Sequence (P47871 26-477): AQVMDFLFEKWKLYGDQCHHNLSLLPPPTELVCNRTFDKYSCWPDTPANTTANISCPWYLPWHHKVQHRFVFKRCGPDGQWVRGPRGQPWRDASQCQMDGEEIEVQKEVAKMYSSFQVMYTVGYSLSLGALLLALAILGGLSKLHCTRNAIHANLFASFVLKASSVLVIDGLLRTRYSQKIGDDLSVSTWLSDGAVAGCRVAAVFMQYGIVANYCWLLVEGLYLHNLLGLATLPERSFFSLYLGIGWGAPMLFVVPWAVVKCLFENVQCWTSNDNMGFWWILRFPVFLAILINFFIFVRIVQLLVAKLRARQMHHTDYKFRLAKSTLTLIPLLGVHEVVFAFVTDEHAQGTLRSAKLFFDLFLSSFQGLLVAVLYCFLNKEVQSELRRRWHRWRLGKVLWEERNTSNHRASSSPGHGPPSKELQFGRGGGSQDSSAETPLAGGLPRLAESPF
Test: cell-based or functional assay

Row | Binder | EC50 hGlucagon-R (cAMP) [pM]
21 | H[Aib]QGTFTSDLSKQK([γGlu-x53])ESKAAQDFIEWLKAGGPSSGAPPPS-NH2 (reading uncertain) [SEQ ID NO: 25] | 40.6
22 | H[Aib]QGTFTSDLSKQK([γGlu-γGlu-x53])DEEAARLFIEWLKAGGPSSGAPPPS-NH2 (reading uncertain) [SEQ ID NO: 226] | 19.1
23 | H[Aib]QGTFTSDLSKQK(x53)ESRRAQDFIEWLKAGGPSSGAPPPS-NH2 (reading uncertain) [SEQ ID NO: 5] | 109
24 | HXQGTFTSDLSKQKESKAAQDFIEWLKAGGPSSGAPPPS (dSer at 2; K(γE-x70) at 14; C-terminal NH2) [SEQ ID NO: 26] | 5.4
25 | HXQGTFTSDLSKQKDSQAAQDFIEWLKAGGPSSGAPPPS (dSer at 2; K(γE-x53) at 14; C-terminal NH2) [SEQ ID NO: 39] | 7.6
26 | HXQGTFTSDLSKQKESRAAQEFIEWLKAGGPSSGAPPPS (dSer at 2; K(γE-x53) at 14; C-terminal NH2) [SEQ ID NO: 47] | 10.3
27 | HXQGTFTSDLSKQKESKAAQEFIEWLKAGGPSSGAPPPS (dSer at 2; K(γE-x53) at 14; C-terminal NH2) [SEQ ID NO: 28] | 12.6
28 | HXQGTFTSDLSKQKDEKAAQDFIEWLKAGGPSSGAPPPS (dSer at 2; K(γE-x53) at 14; C-terminal NH2) [SEQ ID NO: 22] | 2.4
29 | HXQGTFTSDLSKQKESKAAQDFIEWLKAGGPSSGAPPPS (dSer at 2; K(x53) at 14; C-terminal NH2) [SEQ ID NO: 32] | 188
30 | HXQGTFTSDLSKQKESQAAQDFIEWLKAGGPSSGAPPPS (dSer at 2; K(γE-x53) at 14; C-terminal NH2) [SEQ ID NO: 35] | 14.2
31 | HXQGTFTSDLSKQKESQAAQEFIEWLKAGGPSSGAPPPS (dSer at 2; K(γE-x53) at 14; C-terminal NH2) [SEQ ID NO: 37] | 12.9
32 | HXQGTFTSDLSKQKESQAAQDFIEWLKAGGPSSGAPPPS (dSer at 2; K(γE-x70) at 14; C-terminal NH2) [SEQ ID NO: 40] | 4.8
33 | HXQGTFTSDLSKQKDEQAAQDFIEWLKAGGPSSGAPPPS (dSer at 2; K(γE-x53) at 14; C-terminal NH2) [SEQ ID NO: 34] | 6.7
34 | HXQGTFTSDLSKQKESRAAQDFIEWLKAGGPSSGAPPPS (dSer at 2; K(γE-γE-x53) at 14; C-terminal NH2) [SEQ ID NO: 49] | 2.9
35 | HXQGTFTSDLSKQKESRAAQDFIEWLKAGGPSSGAPPPS (dSer at 2; K(γE-x53) at 14; C-terminal NH2) [SEQ ID NO: 44] | 12
36 | HXQGTFTSDLSKQKESRAAQDFIEWLKAGGPSSGAPPPS (dSer at 2; K(GABA-x53) at 14; C-terminal NH2) [SEQ ID NO: 50] | 11.1
37 | HXQGTFTSDLSKQKESQAAQDFIEWLKAGGPSSGAPPPS (dSer at 2; K(x53) at 14; C-terminal NH2) [SEQ ID NO: 42] | 199
38 | H[Aib]QGTFTSDLSKQK([γGlu-x53])ESQAAQDFIEWLKAGGPSSGAPPPS-NH2 (reading uncertain) [SEQ ID NO: 36] | 45.9
39 | H[Aib]QGTFTSDLSKQK([γGlu-x53])ESQAAQEFIEWLKAGGPSSGAPPPS-NH2 (reading uncertain) [SEQ ID NO: 38] | 53.1
40 | H[Aib]QGTFTSDLSKQK(x53)ESKAAQDFIEWLKAGGPSSGAPPPS-NH2 (reading uncertain) [SEQ ID NO: 33] | 473
